According to article PMC6215714 (Nature chemical biology, 2015):

Biological target: Growth arrest specific 6 (Gas6), soluble, His-tagged (Homo sapiens, UniProt Q14393)
Test: flow cytometry on cells

Growth arrest specific 6 (Gas6), soluble, His-tagged, sequence (Q14393 31-678): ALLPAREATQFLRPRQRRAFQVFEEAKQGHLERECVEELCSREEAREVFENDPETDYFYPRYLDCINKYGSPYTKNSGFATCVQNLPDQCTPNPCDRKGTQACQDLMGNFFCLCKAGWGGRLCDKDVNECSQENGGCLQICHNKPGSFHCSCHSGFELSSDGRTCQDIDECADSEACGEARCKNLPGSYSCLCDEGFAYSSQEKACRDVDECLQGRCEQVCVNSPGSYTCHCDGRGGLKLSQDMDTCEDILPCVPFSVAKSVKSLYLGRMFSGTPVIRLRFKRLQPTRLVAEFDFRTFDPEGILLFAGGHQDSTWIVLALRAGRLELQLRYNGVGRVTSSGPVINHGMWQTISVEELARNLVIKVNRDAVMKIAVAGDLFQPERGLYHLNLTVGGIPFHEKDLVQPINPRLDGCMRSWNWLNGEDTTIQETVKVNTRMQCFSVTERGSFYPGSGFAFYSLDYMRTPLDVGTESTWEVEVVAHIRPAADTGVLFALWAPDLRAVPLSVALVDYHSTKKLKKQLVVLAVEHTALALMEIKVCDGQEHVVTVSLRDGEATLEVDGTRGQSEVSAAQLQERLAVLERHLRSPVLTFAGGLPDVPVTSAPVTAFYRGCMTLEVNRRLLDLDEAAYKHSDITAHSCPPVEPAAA

Kd: 130 nM
B1: anti-Gas6 scFv identified by μSCALE from a naïve yeast-displayed scFv library (scFv, V domains shown)
VH: EVQLVESGGGLVQPGGSLRLSCAASGFNISYGGSYIHWVRQAPGKGLEWVASIYPGGGYTYYADSVKGRFTISADTSKNTAYLQMNSLRAEDTAVYYCARTVRGSKKPYFSGWAMDYWGQGTLVTVSS
VL: DIQMTQSPSSLSASVGDRVTITCRASQYGGYGGVAWYQQKPGKAPKLLIYYASSLYSGVPSRFSGSRSGTDFTLTISSLQPEDFATYYCQQWWGYPITFGQGTKVEIK
